From publication PMC6422423 (2019)
Where no end group is shown, it is not given here.

Target: gastrin-releasing peptide receptor (UniProt P30550 1-384)
Test: competition with 125I-GRP

Chain of gastrin-releasing peptide receptor (P30550 whole entry): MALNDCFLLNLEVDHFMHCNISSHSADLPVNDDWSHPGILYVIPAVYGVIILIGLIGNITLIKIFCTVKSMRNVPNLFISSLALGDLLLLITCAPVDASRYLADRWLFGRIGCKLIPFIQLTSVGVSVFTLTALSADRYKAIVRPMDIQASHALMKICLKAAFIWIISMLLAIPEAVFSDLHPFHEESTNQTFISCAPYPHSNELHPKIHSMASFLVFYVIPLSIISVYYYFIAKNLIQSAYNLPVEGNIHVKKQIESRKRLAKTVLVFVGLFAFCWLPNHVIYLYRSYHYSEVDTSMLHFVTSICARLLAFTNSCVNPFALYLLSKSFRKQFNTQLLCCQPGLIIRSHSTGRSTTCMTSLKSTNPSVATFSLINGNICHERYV

IC50 [nM] | Binder
0.2 | APLQPGGSPALTKIYPRGSHWAVGHLM (ends and bridges not checked) [gastrin-releasing peptide, unlabeled ligand peptide of the radioligand binding assays]
151 | YKIKVNPRGNLWATGHFM (ends and bridges not checked) [neuromedin B, unlabeled ligand peptide of the radioligand binding assays]
